Target: SARS-CoV-2 Spike ectodomain (pre-fusion, with proline mutations) (SARS-CoV-2) (UniProt P0DTC2)

EY6A IgG (antibody) showed a plaque reduction neutralisation test (Oxford), SARS-CoV-2, ND50 of 30 µg/mL.
